Source: article PMC9097884 (Science Immunology, 2022)

Assays:
[1] = target: T1, SARS-CoV-2 S receptor-binding domain (RBD, residues 329-538, Wuhan-Hu-1) (SARS-CoV-2 (Wuhan-Hu-1 strain), UniProt P0DTC2); assay: ELISA; conditions: both partners purified
T1 construct: also called SARS-CoV-2 S RBD domain; not shown: Strep-tag, C-terminal, kept

[2] = target: SARS-CoV-2 S1 (residues 1-682, Wuhan-Hu-1) (SARS-CoV-2 (Wuhan-Hu-1 strain), UniProt P0DTC2); assay: ELISA; conditions: both partners purified

B1: 87G7 human monoclonal antibody (recombinant human IgG1/kappa) (antibody, V domains shown)
VH: EVQLLESGGGLVQPGGSLRLSCVASGFTFSSYVMSWVRQAPGKGLEWVAAISGSGGNTYYADSVKGRFTISRDNSKNTLYLQMNSLRAEDTAVYYCAKEGTYYYGSGSFWGQGTLVTVSS
VL: EIVLTQSPATLSLSPGERATLSCRASQSFHNYLAWYQQKPGRAPRLLIFDASNRATGIPARFSGSGSGTDFTLTISSLEPEDFAVYYCQQRFNWPLTFGGGTKVEIK
notes: also called 87G7 IgG; 87G7 mAb
- binding result [1]: binds
- binding result [2]: binds

B2: REGN10933 (recombinant human IgG1/kappa) (antibody, V domains shown)
VH: QVQLVESGGGLVKPGGSLRLSCAASGFTFSDYYMSWIRQAPGKGLEWVSYITYSGSTIYYADSVKGRFTISRDNAKSSLYLQMNSLRAEDTAVYYCARDRGTTMVPFDYWGQGTLVTVSS
VL: DIQMTQSPSSLSASVGDRVTITCQASQDITNYLNWYQQKPGKAPKLLIYAASNLETGVPSRFSGSGSGTDFTFTISGLQPEDIATYYCQQYDNLPLTFGGGTKVEIK
notes: source: HEK-293T, transient transfection, purified (Protein A Sepharose)
- binding result [1]: binds
- binding result [2]: binds

B3: REGN10987 (recombinant human IgG1/kappa) (antibody, V domains shown)
VH: QVQLVESGGGVVQPGRSLRLSCAASGFTFSNYAMYWVRQAPGKGLEWVAVISYDGSNKYYADSVKGRFTISRDNSKNTLYLQMNSLRTEDTAVYYCASGSDYGDYLLVYWGQGTLVTVSS
VL: QSALTQPASVSGSPGQSITISCTGTSSDVGGYNYVSWYQQHPGKAPKLMIYDVSKRPSGVSNRFSGSKSGNTASLTISGLQSEDEADYYCNSLTSISTWVFGGGTKLTVL
- binding result [2]: binds
